Assay results: the DeepSol protein solubility set

Assay: soluble on expression in E. coli; label from the status in PepcDB or PDB records

Sequence	soluble on expression in E. coli
SLNAAAADRNKDPILSVLKSRVASNRRLFALEISSGTGQHVVHFAKAFPNITWQPSEVETQSLSSIEAYRQYHRLQNVQPPIYLDVSQSWQTWGGFPAESCDLIININMMHISPLACTTGLFHGVGQILKPQGLLLTYGPYAFNGSIVPQSNFDFDQSLRYRNPEWGLRDASFLTTLGQENGLRLEEIVDMPANNKCLLFRKDSVV	soluble
MTKVYIENYGCARNRADGEIMAGLLLSSGYEIVEGEENADIVVVNSCAVKDPTEVKIARRIRELLDRGKKVIVTGCLPHVNPDAIDERVSAVLGVKSIDRIVQAVEYALRGEKLISVPDWRKRNLDKLDFPRLSPRGVHFILPIAEGCLNGCTYCATRSARGVLKSYSPEKIVEWVKWAIRQGYKEIWLSAEDTGCYGFDIGTNLAKLLDEITAIEGEFRIRVGMMNPNHVLKFLDELIEAYKDEKVYKFLHLPVQSGDNEILRRMGRTYTVEEFEEIVNAFRREFPDLNLHTDIIVGFPGESEEAFQRSLELIKRIKPDKVNVSRYSPRPGTIAAKWKQLPGWVVKERSRIMHRVRLQISYEINQRYVGRKVDILVHGEGKKGNVDAVTMNYKHIIIPRGEKGEFARAKVNGATSTYLLGEIVD	soluble
MHHHHHHSSGRENLYFQGSVFGVPLTVNVQRTGQPLPQSIQQAMRYLRNHCLDQVGLFRKSGVKSRIQALRQMNEGAIDCVNYEGQSAYDVADMLKQYFRDLPEPLMTNKLSETFLQIYQYVPKDQRLQAIKAAIMLLPDENREVLQTLLYFLSDVTAAVKENQMTPTNLAVCLAPSLFHLNTLKRENSSPRVMQRKQSLGKPDQKDLNENLAATQGLAHMIAECKKL	soluble
PMILGYWNVRGLTHPIRLLLEYTDSSYEEKRYAMGDAPDYDRSQWLNEKFKLGLDFPNLPYLIDGSRKITQSNAIMRYLARKHHLCGETEEERIRADIVENQVMDNRMQLIMLCFNPDFEKQKPEFLKTIPEKMKLYSEFLGKRPWFAGDKVTYVDFLAYDILDQYHIFEPKCLDAFPNLKDFLARFEGLKKISAYMKSSRYLSTPIFSKLAQWSNK	soluble
KLEEEPYLKGTVNTVIYHNDTNLYTVLKVKVTETSEAIEDKAVSVTGYFPALQEEETYTFYGKIVTHPKFGLQFQAEHFKKEIPTTKEGIIQYLSSDLFEGIGKKTAEEIVKKLGDSAINKILADASVLYDVPRLSKKKADTLAGALQRHQGLEQIMISLNQFGFGPQLSMKIYQAYESETLEKIQENPYQLVKDVEGIGFGKADELGSRMGLSGNHPERVKAAILYTLETTCLSEGHTYIETEQLIIDTQSLLNQSAREGQRITEMDAANAIIALGENKDIVIEDGRCYFPSLFYAEQNVAKRVKHIASQTEYENQFPESEFLLALGELEERMDVQYAPSQKEAIQKALSSPMLLLTGGPGTGKTTVIRGIVELYGELHGVSLDPSAYKKDEAFPIVLAAPTGRAAKRMSESTGLPAVTIHRLLGWNGAEGFTHTEDQPIEGKLLIIDEASMLDIWLANHLFKAIPDHIQIIIVGDEDQLPSVGPGQVLRDLLASQVIPTVRLTDIYRQAEGSSIVELAHQMKNGLLPNNLTAPTKDRSFIRCGGSQIKEVVEKVVANALKKGYTAKDIQVLAPMYRGKAGINELNVMLQDILNPPKEKRRELKFGDVVYRTGDKILQLVNQPENNVFNGDIGEITSIFYAKENTEKEDMAVVSFDGNEMTFTKKDFNQFTHAYCCSIHKSQGSEFPIVVLPVVKGYYRMLRRNLLYTAITRAKKFLILCGEEEALEWGVKNNDATVRQTSLKNRLSVQVEEMDAELEALQKELPFSVHDANIGMEGITPFDFM	not soluble
MGSDKIHHHHHHMERHNAIPIYDAELPLTSGVIPLVAGLTMPGCLRDASPDAWGRRVILNKRFGKTALQIDPGSIDELSYLIESGSDRIGALDFQRSPTEYIPRLASGAPLEELIKAAELVEKGVPLTPELAQALQHGTSIGGARPKALVQSDNHKFIAKFSTSTDLYSVVKAEFIAMKLALMAGLHVAPVNLLQVAGKDVLMVERFDRVAAPAGWQRKGIVSALTMLQLDEMMARYASYHDLANLVRQRFMRAPSTLRELFSRLAFNILIGNTDDHARNHAAFWDGRMLQLTPAYDICPQSRTGRTASQAMQISDGQNSSQITTCLKAAPHFLLNEAEAGLIIEGQIRCIEENWPTICEEADLSEIDRNLMWRNQVLNPFAFEGLEGSSLERLAKKYR	not soluble
MSLKRMVNVLFAGVLAMTVLSCGEEKKGYTLNGEISDVKDGMVYLKKYQDKSFIAVDSAVITDGTFKFEGVCTEPLAYGLTTFRDSKRPLVFFLDNEKMQLKMNESEKILTVTGSAINDLYAQNAPLTRQDGYSIDSLVAVHPASAVTPYFIVKDFAYKLNLEEMKALRAKLDASLDETMYVSQIDGFIKRMKDIQVGAVAPDFTLPDVDGNPVTLSGLRGKYVLIDFWASWCPDCRKENPNIVAAWNKYKDKNFTILGVSLDRKKEPWLAAIEKDQLAWTHVSDLKDWKSDAAVQYAIRWIPMNFLLDPNGVILAVGLEGEALQQKLDEVLKEGHHHHHH	not soluble
MPNRPDLCLGVMSIELRHLRAAVAIAEAGSFTAAANALHITQPALTRTVQQLETSLGVRLFDRTSRALALTEDGAGFVEKVRVILGDLDSAVALYTNRSLVLGFSWLLPDPWAQQVIDDVEKNSRATVVPRRYDDPVAALNNATVDAAVVRRDVPGDEFVQHPLFEEQRIAAVSTASPLATRESIDWAEFGTLPLVINTLSGTTSEDLWPNHDGPVVTCSNFDDWLELIAADRGVGTVPEVARRRVTHRNVQFIPLVGAPPAVVRFVYRRNRVTPLLRVLRDAAIRHSPPPGSVTVGQHD	not soluble
MATVTTHASASIFRPCTSKPRFLTGSSGRLNRDLSFTSIGSSAKTSSFKVEAKKGEWLPGLASPDYLTGSLAGDNGFDPLGLAEDPENLKWFVQAELVNGRWAMLGVAGMLLPEVFTKIGIINVPEWYDAGKEQYFASSSTLFVIEFILFHYVEIRRWQDIKNPGSVNQDPIFKQYSLPKGEVGYPGGIFNPLNFAPTQEAKEKELANGRLAMLAFLGFVVQHNVTGKGPFENLLQHLSDPWHNTIVQTFN	soluble
MSLERQTLKQKLSTLIQPLQTAKRGAPLTNRTLSATTCQQIESLVTAIEALNPNLSPLLYSPQLLDGNWWLNYSTAREIRSLDKLPLGLKVGRIYQIINVPNQSFLNQAFVYHPLGLAKGYVKVTAKFEIAKPAGTVLPDKRINVEFLERMISIQKLMGVPTPKLDPAKVVPARSPEGRIPFLEITYLDDDLRIGRGGEGSLFVLSKVSEVTPLEHHHHHH	not soluble
MPNHLAGETSPYLLQHAENPVDWYPWGEEALEIARMLDKPILLSIGYSACHWCHVMAHESFEDAQVATAMNEHFVNIKVDREERPDIDQIYQSAHYTLNHRSGGWPLTMFLTPEQKPFFGGTYFPKEARYSMPGFLELLPKVAELYRTRKTDIEKQNA	not soluble
MGSDKIHHHHHHMSNNKCITVIGGVYIERYAWPHWDELYGSGGRALSVLQSLGCATKLYSCLNKDSANILQARAGIYKTSFEICSSLKESYRPIKFHYLHGLSTPQISAITTEFAQQNEIIEDNILVFGMLEGNPTISGNKVVYDPQNPISPKDFSENGSTANELAIVLNTNEAYKLIKNRNLSLDEIAYELIKNKAKVVIIKQGVRGVNIYQKLNDRYIKKDSVPCYFTKNVWKIGSGDCFSAHFAYQWIYEGKTPTEAAELASKATAYYCETRGYPSFEEFTNWKNRVQPITHRHSEKKVTVYLAGPFFTLSQIWLINETRRLLSEMGLIVFSPYHEIGTGDAIMVVPKDIDGINNSDIIFAIFDGKDSGTIFEIGYATAKNKPVIVYNENEKSEDLKMMEGTDCIVIKDYVSAIYRTLWESQKL	not soluble
NVRVITDENWRELLEGDWMIEFYAPWCPACQNLQPEWESFAEWGEDLEVNIAKVDVTEQPGLSGRFIINALPTIYHCKDGEFRRYQGPRTKKDFINFISDKEWKSIEPVSSWF	soluble
GSVTVPEVIASEVISYAQEENLLRKYGTVIRTAGDVKYPILVKKAEANVNKKERTTDITETAIQFDEILLDPAEFDALATVTKKLLKMSGVPVEDIVVEELKKAYVRKEINYMFNGDDAGNENPGALAKKAVAFEKPVDLTAAGAGQKLYDALIEFKNTPVTEVMKKGRFIINRAALTAIEKMKTDDGFPLLRPFTQAEGGIGYQLVGYPVDWTDAADKKGEPDTPVLYFGDFSAFKIQEVIGALEIQKLVEKFSGKNQVGFQIYNLLDGQLVYSPFEPAVYRYEITKPVGG	not soluble
MYEIKGHHHISMVTKNANENNHFYKNVLGLRRVKMTVNQDDPSMYHLFYGDKTGSPGTELSFFEIPLVGRTYRGTNAITRIGLLVPSEDSLHYWKERFEKFDVKHSEMTTYANRPALQFEDAEGLRLVLLVSNGEKVEHWETWEKSEVPAKHQIQGMGSVELTVRRLDKMASTLTEIFGYTEVSRNDQEAIFQSIKGEAFGEIVVKYLDGPTEKPGRGSIHHLAIRVKNDAELAYWEEQVKQRGFHSSGIIDRFYFKSLYFRESNGILFEIATDGPGFTVDGDVEHLGEKLDLPPFLEDQRAEIEANLAPIEEK	soluble
MTRRGVALVARRLPSSPGRVYAVKIDEGEDVHSVLSSLAEAEDLGFAMVTGIGGMAEATVAFYSPPEATYYTVDVKPPEGRVIEVAAMTGNIVKTSQGYSVHIHVALGVSPGKSISGHLVKGVVKPFMEVFVVELVSGQGTPGTSVFDHREGFKASYKRLEAAALEHHHHHH	not soluble
MSLAGGYVIDTTENTFQAMVQTSATFPILLFLWVPTDDRLFAMARALGDAVNKLNGQIQLSRIDIASNPSIAQAFQIQGAPALFALIGGRPMPILQGLPSDEELQQITDVVVPKLIAAAQQAGVTGTAPYSGDPDSDAANSASAGSVQDQVPPEHQEAYMLAQQGDYAGAAAAYEKVLEADPNDTRAARERAKALLLARSANADVRVVRAAAADKPDDVDAQLAVADIDMIGGQIQDAFDRLLDFVAAGHKADIEPVRQRLLEYFTIPEPTDERLKRARRRLATLMYEGHHHHHH	soluble
TEERLKEIEAKYDEIAKDWPKKVKHVLHEEHELELTRVQVYTCDKCEEEGTIWSYHCDECDFDLHAKCALNEDTKE	soluble
MGSDKIHHHHHHSAGPIHPASLDIDNGNGTNVFIAYEWVDYDYKTYTENGLALDEAWGHLYMAIVAVAGVHVTGYVHNDIDRGNFVINSDGILKLTDFGMSSSKDASCSGKALFFPPETFQPGFFQRKRDASALARVQARDLFQVGNTMLEAILGKEGEIYQAERYGLKLAMVKKKPDFKQDLKVVIQDEKKFRKSFGKIGTKKIEDKLCVDPSRQAEVVKNLARWGLQNSLSL	not soluble
SAPGVPDARAIAAICEQLRQHVADLGVLYIKLHNYHWHIYGIEFKQVHELLEEYYVSVTEAFDTIAERLLQLGAQAPASMAEYLALSGIAEETEKEITIVSALARVKRDFEYLSTRFSQTQVLAAESGDAVTDGIITDILRTLGKAIWMLGATLKA	soluble
MTNIEERINQIIQVLREQVVQDTAVPRNIRRAAEQAIEALQNKEKEPAVRAADAIAILEEISEDPNMPLHTRTIIWEVLGALEQIK	not soluble
MGNLCSTSKNEAEPFSRPGRVLGSAANPPPNAAPRAPLPAKSKAPFKSPGRSLGEAAPEVPGAERADARTNAAIAAQVSDTVERSGAALVCGRWLTGECQKRAESAAKAQKGKLGSKLAAQKAQTQAKTLSEVSREQISARHMDESSEARRWN	not soluble
GSDTPSNLMGKQQWKALVEEAIHSDWVKFRFQAAKNTWGKVFHNEVFSSIEKDGETYRANQYLFALEQLDATNIFDQYVIESMIKMLESGELNDPVAINIAQSSLSQPSFIRWTTNMLEKHSKVASKLHFEIPEECFIDHPHHTALLCNAIRQSGAEFGVDNYGRNFQSLEYIQEFRPNYVKLDYLFTHNLHDEKQKFTLTSISRTAHNLGITTIASRIETQIQLDFLTEHFVEVFQGFIVDKE	not soluble
